Measurements taken from patent US9951373B2, “Oplophorus-derived luciferases, novel coelenterazine substrates, and methods of use” (Promega Corporation, priority 2010, dated 2018).

B1: L27V, T39T, K43R, Y68D Sand: L27V in Id-OgLuc-HT7 sandwich (SEQ ID NO: 91) (protein)
chain: MLGLSEQSVSISRCAGTRLPALLDEQQVNVLLYDMNGCYSRLKELVPTLPQNRKVSKVEILQHVIDYIRDLQLELNSESEVGTTGGRGLPVRAPLSTLNGEISALAAEAACVPADDRILCRVSLENLYFQASGGGGGAIAMVFTLEDFVGDWRQTAGYNLDQVLEQGGVSSLFQNLGVSVTPIQRIVLSGENGLKIDIHVIIPYEGLSGDQMGQIEKIFKVVYPVDDHHFKVILHYGTLVIDGVTPNMIDYFGRPYEGIAVFDGKKITVTGTLWNGNKIIDERLINPDGSLLFRVTINGVTGWRLCERILAGYLEPTTEDLYFQSDNDGSEIGTGFPFDPHYVEVLGERMHYVDVGPRDGTPVLFLHGNPTSSYVWRNIIPHVAPTHRCIAPDLIGMGKSDKPDLGYFFDDHVRFMDAFIEALGLEEVVLVIHDWGSALGFHWAKRNPERVKGIAFMEFIRPIPTWDEWPEFARETFQAFRTTDVGRKLIIDQNVFIEGTLPMGVVRPLTEVEMDHYREPFLNPVDREPLWRFPNELPIAGEPANIVALVEEYMDWLHQSPVPKLLFWGTPGVLIPPAEAARLAKSLPNCKAVDIGPGLNLLQEDNPDLIGSEIARWLSTLEISG
B2: L27V, K43R, Y68D: 9B8 opt+K33N with L27V, K43R, Y68D (SEQ ID NO: 340) (protein)
chain: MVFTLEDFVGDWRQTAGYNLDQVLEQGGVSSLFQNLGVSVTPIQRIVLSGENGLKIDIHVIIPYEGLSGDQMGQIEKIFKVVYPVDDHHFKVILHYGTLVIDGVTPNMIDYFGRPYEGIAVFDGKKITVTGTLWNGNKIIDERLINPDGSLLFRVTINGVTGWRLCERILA

Assays:
[1] = test system: HEK293 cells; assay: Luminescence in sandwich background, HEK293 cells; type: cell-based, human
Protocol: (§1) The PCR library in the Id-OgLuc-HT7 sandwich background was screened for additional variants with increased luminescence compared to 9B8 opt+K33N in sandwich background. Selected variants were then assayed in HEK293 and NIH3T3 cells. […] 1F7 (F) (SEQ ID NOs: 84 and 85) and 15H1 (F) (SEQ ID NOs: 86 and 87) had at least 1.3 fold-increase in luminescence in E. coli. 1F7 (F) was brighter than 9B8 opt+K33N in the sandwich background in HEK293 and NIH3T3 cells.
(§2) The variants 9B8 opt+K33N+T39T+K43R+Y68D (“V2”; SEQ ID NOs: 92 and 93), 9B8 opt+K33N+L27V+K43R+Y68D (SEQ ID NOs: 339 and 340), 9B8 opt+K33N+L27V+T39T+K43R+S66N (SEQ ID NOs: 341 and 342), and 9B8 opt+K33N+L27V+T39T+K43R+Y68D (“L27V”; SEQ ID NOs: 88 and 89) were subcloned into the Id-OgLuc-HT7 sandwich background as described above and assayed in HEK293 and NIH3T3 cells as described above. The luminescence generated by the sandwiched variants were compared to the luminescence generated by the […] sandwich (SEQ ID NOs: 59 and 60) (Table 38). The L27V sandwich (SEQ ID NOs: 90 and 91) and V2 sandwich (SEQ ID NOs: 94 and 95) had at least 1.3× fold-increase in luminescence in HEK293 and NIH3T3 cells.
(§3) The sandwich and non-sandwich versions of the variants V2, 9B8 opt+K33N+L27V+K43R+Y68D, 9B8 opt+K33N+L27V+T39T+K43R+S66N, and L27V were assayed in HEK293 and NIH3T3 cells as described in Example 37. The luminescence generated by the non-sandwiched variants was compared to the luminescence generated by the sandwiched variants (Table 39).

[2] = test system: NIH3T3 cells; assay: Luminescence in sandwich background, NIH3T3 cells; type: cell-based
Protocol: as §1, §2, §3

[3] = Luminescence of 9B8 opt+K33N derived variants in E. coli; type: biochemical
Protocol: Luminescence generated from the lysates was measured using the novel PBI-3939 and native coelenterazine as substrates. The relative specificity of the variants for PBI-3939 and native coelenterazine was calculated as described previously.
A new OgLuc library was created using 9B8opt+K33N as a starting template. The random library was created using DIVERSIFY® PCR Random Mutagenesis Kit (ClonTech; Catalog #630703). Condition 5 (as listed in the user manual) was used to generate additional variants, and the average mutation rate was calculated to be 2.6 mutations per gene by compiling sequence data from 83 randomly selected clones. This PCR library was cloned into the pF4Ag-based, non-fusion vector background described previously and the sandwich background, i.e., Id-OgLuc-HT7 (described in Example 45). Variants in the pF4Ag-base non-fusion vector background are designated with (NF). Variants in the sandwich vector background are designated with (F). In order to clone the PCR product into both vectors, an amino acid, i.e., a glycine, was appended to the variant sequence in pF4Ag, generating a new position 170 in the OgLuc variant (“170G”). The 170G is present in the sandwich construct, but in this case is considered part of the linker between OgLuc and HT7. For each library, 4,400 E. coli clones were assayed as described previously with the following exceptions. […] The assay buffer contained 100 mM MES pH 6.0 instead of HEPES, and 35 mM thiourea. The assay volumes were as follows: 10 μL cells, 40 μL, lysis buffer, and 50 μL, assay buffer.
E. coli lysates containing the variants were prepared and analyzed as described previously. Luminescence generated from the lysates was measured using the novel PBI-3939 and native coelenterazine as substrates. The luminescence of the variants was normalized to the luminescence generated by 9B8 opt (Table 12). The relative specificity of the variants for PBI-3939 and native coelenterazine was calculated by dividing the luminescence of the variants using PBI-3939 as a substrate with the luminescence of the variants using native coelenterazine as a substrate (Table 12).

[4] = test system: HEK293 cells; assay: Luminescence of OgLuc variants expressed in HEK293 cells; type: cell-based, human
Protocol: (§4) The PCR library in the pF4Ag-based non-fusion background was screened for additional variants with increased luminescence compared to 9B8 opt+K33N+170G (SEQ ID NOs: 68 and 69). Selected variants were then assayed in HEK293 and NIH3T3 cells. For each cell type, 15,000 cells were plated and grown overnight at 37° C. The next day, the cells were transfected as described in Example 25 with 10 ng pGL4.13 (Promega Corp.) as a transfection control and 100 ng of the OgLuc test DNA. The media was removed, and the cells were lysed with 100 μL of lysis buffer as described in Example 25 except the lysis buffer contained 100 mM MES pH 6.0 instead of HEPES, and luminescence measured using a GLOMAX® Luminometer.
(§5) Based on the above data, further combination variants were designed and generated (see Table 10) in the context of the pF4Ag-based non-fusion vector background without the 170G. The variants were analyzed in E. coli, HEK293 and NIH3T3 cells as described above and compared to 9B8 opt+K33N. The variants were also examined for luminescence with native coelenterazine.
(§6) The brightness of the variants expressed in HEK293 and NIH3T3 cells was measured as described previously. The luminescence of the variants was normalized to the luminescence generated by 9B8 opt (Table 27).

[5] = test system: NIH3T3 cells; assay: Luminescence of OgLuc variants expressed in NIH3T3 cells; type: cell-based
Protocol: as §4, §5, §6

[6] = Enzyme kinetics of OgLuc variants in E. coli lysates; type: biochemical; details: PBI-3939, E. coli lysates
Protocol: Using methods known in the art, enzyme kinetic assays measuring luminescence were performed with the lysates of E. coli containing IV and the IV variants 15C1, 9B8, 9F6, and 9A3. […] Two fold serial dilutions of PBI-3939 in the assay buffer described previously in Example 26 were assayed with the diluted lysates. […] Variants 9B8 and 9F6 had higher Km values compared to IV while Km values for the other variants were unchanged.
Luminescence was measured on a TECAN® INFINITE® F500 luminometer.
The enzyme kinetics values were determined for the OgLuc variants as described previously, except luminescence was measured using a GLOMAX® luminometer. Three replicates were used for each variant.

[7] = Thermal stability of OgLuc variants at 60° C.; type: physicochemical; details: 60° C., assay buffer MES pH 6.0
Protocol: Aliquots were removed at different time-points and placed on dry ice to freeze the samples. […] Luminescence was measured on a GLOMAX® luminometer (Promega Corp.).
The thermal stability of the variants at 60° C. was examined as described above, except the assay buffer contained 100 mM MES pH 6.0 instead of HEPES.

[8] = relative specificity for PBI-3939 compared to native coelenterazine

| Molecule | Fold over 9B8 opt + K33N sandwich, HEK293 ([1]; sandwich background) | Fold over 9B8 opt + K33N sandwich, NIH3T3 ([2]; sandwich background) | fold-increase in relative specificity over 9B8 opt+K33N ([3]; in the three cell types examined) [× fold] | Fold over coelenterazine ([3]; luminescence with PBI-3939 divided by luminescence with native coelenterazine, bacterial lysates) | Fold over 9B8 ([3]; luminescence with PBI-3939 normalized to 9B8 opt, bacterial lysates) | Fold over Native Coelenterazine, E. coli [3, 8] | luminescence normalized to 9B8 opt, HEK293 ([4]; PBI-3939) | Fold over 9B8 opt + K33N, HEK293 ([4]; luminescence, PBI-3939) | Fold over Native Coelenterazine, HEK293 [4, 8] | luminescence normalized to 9B8 opt, NIH3T3 ([5]; PBI-3939) | Fold over 9B8 opt + K33N, NIH3T3 ([5]; luminescence, PBI-3939) | Fold over Native Coelenterazine, NIH3T3 [5, 8] | Km [6] [µM] | Vmax [6] | 1/2 life hours [7] [h] | Fold-decrease in luminescence in the presence of sandwich background, HEK 293 ([1]; non-sandwich versus sandwich) | Fold-decrease in luminescence in the presence of sandwich background, NIH 3T3 cells ([2]; non-sandwich versus sandwich) |
| --- | --- | --- | --- | --- | --- | --- | --- | --- | --- | --- | --- | --- | --- | --- | --- | --- | --- |
| B1 | 1.7 | 1.4 | – | – | – | – | – | – | – | – | – | – | – | – | – | – | – |
| B2 | – | – | 5 | 110 | 1.3 | 98.3 | 1.6 | 0.9 | 101 | 1.5 | 0.8 | 98 | 13.7 | 130,000,000 RLU/0.5 sec | 23.2 | 8 | 22 |
